Source: the RNAGym collection of RNA variant scans (doi:10.7554/elife.80360)

B1: CPEB3 Ribozyme (parent)
chain: GGGGGCCACAGCAGAAGCGUUCACGUCGCGGCCCCUGUCAGAUUCUGGUGAAUCUGCGAAUUCUGCUGU

Variants of: B1
Assay: self-cleavage, relative activity (ratio to wild type); higher = more cleavage; co-transcriptional

Compared with U38G G58U, G41C U69A is higher in self-cleavage: 0.294 for the first, 0.932 for the second.

First: G41A U43G
Second: C39U U43A
The self-cleavage of the first is lower: 0.241 for the first, 0.49 for the second.

Going from C39U U43G to G41A G68A, the self-cleavage rises from 0.405 to 0.979.

First: G41A G65A
Second: C39U G41C
The self-cleavage of the first is higher: 0.482 for the first, 0.445 for the second.

First: A40G A42C
Second: C39A A59G
The self-cleavage of the first is lower: 0.81 for the first, 0.911 for the second.

Compared with C39A A59U, U38G U44A is lower in self-cleavage: 0.446 for the first, 0.149 for the second.

First: U38C G48U
Second: U38C G48C
The self-cleavage of the first is higher: 1 for the first, 0.986 for the second.

Going from G41U G50A to G41U G50U, the self-cleavage rises from 0.704 to 0.845.

First: C39G U69A
Second: C39G U69G
The self-cleavage of the first is lower: 0.967 for the first, 1 for the second.

First: A40C U44G
Second: A40C U44A
The self-cleavage of the first is higher: 0.419 for the first, 0.417 for the second.

Compared with A40C U44C, U38G A59U is lower in self-cleavage: 0.368 for the first, 0.228 for the second.

First: U38C U46G
Second: U38G U61A
The self-cleavage of the first is higher: 0.921 for the first, 0.267 for the second.

Compared with U38G U61C, U38G U61G is higher in self-cleavage: 0.289 for the first, 0.436 for the second.

Going from U38C U44G to G41U A52U, the self-cleavage falls from 0.851 to 0.526.

First: G41C C57G
Second: G41C C57A
The self-cleavage of the first is lower: 0.249 for the first, 0.285 for the second.

Compared with C39A U61A, G41C U61A is lower in self-cleavage: 0.601 for the first, 0.484 for the second.

First: A40U U61A
Second: A40U U61C
The self-cleavage of the first is higher: 0.5 for the first, 0.258 for the second.

First: C39A G48C
Second: C39A G48U
The self-cleavage of the first is higher: 0.912 for the first, 0.903 for the second.

Compared with A40C C63A, G41U G48A is higher in self-cleavage: 0.321 for the first, 0.998 for the second.

Compared with C39A U49C, C39A U49G is higher in self-cleavage: 0.811 for the first, 0.928 for the second.

Compared with G41U G65C, G41C U53G is higher in self-cleavage: 0.272 for the first, 0.552 for the second.

Compared with C39A C66G, C39G G41A is lower in self-cleavage: 0.535 for the first, 0.486 for the second.

Compared with G41A U67C, A40U U44A is lower in self-cleavage: 0.818 for the first, 0.609 for the second.

First: G41U A42U
Second: G41U A42C
The self-cleavage of the first is higher: 0.862 for the first, 0.389 for the second.

Going from G41U A42G to A40G G56C, the self-cleavage rises from 0.777 to 0.779.

First: C39U G47U
Second: C39U G47A
The self-cleavage of the first is higher: 0.973 for the first, 0.948 for the second.

Going from G41C U64C to G41U U49A, the self-cleavage rises from 0.394 to 0.97.

Going from G41U U49G to A40U U53G, the self-cleavage falls from 0.848 to 0.378.

Going from A40U U53A to G41C A52U, the self-cleavage rises from 0.302 to 0.415.

Going from G41C A52G to A40C U67C, the self-cleavage falls from 0.609 to 0.539.

First: C39U U44G
Second: C39U U44C
The self-cleavage of the first is higher: 0.693 for the first, 0.514 for the second.

Going from A40G U44A to G41U C57A, the self-cleavage falls from 0.907 to 0.303.

Compared with G41U C57G, G41U C57U is lower in self-cleavage: 0.328 for the first, 0.243 for the second.

First: C39G U43C
Second: U38G
The self-cleavage of the first is higher: 0.75 for the first, 0.242 for the second.

Going from C39U U53A to A40G G47C, the self-cleavage rises from 0.582 to 1.

First: G41A U55C
Second: C39U A59U
The self-cleavage of the first is lower: 0.491 for the first, 0.527 for the second.

Going from C39U A59C to G41U U55C, the self-cleavage falls from 0.445 to 0.34.

First: G41U U55A
Second: A40G U67A
The self-cleavage of the first is lower: 0.551 for the first, 0.941 for the second.

Going from C39A U46A to G41A A52C, the self-cleavage falls from 0.925 to 0.388.

Going from G41C U46C to G41C U46G, the self-cleavage rises from 0.63 to 0.855.

First: G41A G47A
Second: G41A G47U
The self-cleavage of the first is lower: 0.979 for the first, 0.98 for the second.

First: A40G U62G
Second: A40G U62A
The self-cleavage of the first is higher: 0.858 for the first, 0.837 for the second.

Going from G41C to G41A, the self-cleavage rises from 0.891 to 0.906.

Compared with G41U, A40C G47C is lower in self-cleavage: 0.928 for the first, 0.794 for the second.

Compared with A40U A59C, A40C C57U is higher in self-cleavage: 0.285 for the first, 0.287 for the second.

Going from A40G G65U to U38G G68C, the self-cleavage falls from 0.519 to 0.175.

First: U38G G68U
Second: U38C U43G
The self-cleavage of the first is lower: 0.273 for the first, 0.866 for the second.

First: C39U U49C
Second: A42C A60G
The self-cleavage of the first is higher: 0.927 for the first, 0.771 for the second.

First: A42C A60C
Second: C39A U62C
The self-cleavage of the first is lower: 0.503 for the first, 0.595 for the second.

Going from C39A U62G to A40G A51G, the self-cleavage rises from 0.428 to 0.979.

Compared with A40U C54A, U38G C63U is lower in self-cleavage: 0.435 for the first, 0.229 for the second.

First: U38G C63G
Second: U38C U53A
The self-cleavage of the first is lower: 0.224 for the first, 0.883 for the second.

First: U38C U53G
Second: U38C U53C
The self-cleavage of the first is lower: 0.682 for the first, 0.763 for the second.

Going from A40G U55A to A40G U55G, the self-cleavage falls from 0.858 to 0.757.

First: A40G U55C
Second: C39A A51U
The self-cleavage of the first is higher: 1 for the first, 0.728 for the second.

First: U38C U55G
Second: C39G G48C
The self-cleavage of the first is lower: 0.242 for the first, 0.945 for the second.

C39U U55A and C39U U55C are the same in self-cleavage: 0.752 for the first, 0.752 for the second.

First: U38G U62A
Second: U38G U62G
The self-cleavage of the first is higher: 0.291 for the first, 0.183 for the second.

Going from U38G A51U to U38G A51G, the self-cleavage falls from 0.295 to 0.258.

Compared with U38C C63G, C39G U64A is lower in self-cleavage: 0.693 for the first, 0.636 for the second.

First: A40G C66G
Second: A40C U55G
The self-cleavage of the first is lower: 0.67 for the first, 0.951 for the second.

Compared with U38G G50A, U38G G50C is lower in self-cleavage: 0.204 for the first, 0.161 for the second.

Going from A40U C63A to C39U U69G, the self-cleavage rises from 0.364 to 1.05.

First: C39U U69A
Second: G41A C66A
The self-cleavage of the first is higher: 0.94 for the first, 0.388 for the second.

Going from G41A C66U to C39G G65C, the self-cleavage falls from 0.756 to 0.297.

Going from C39G G65U to A40U G41U, the self-cleavage rises from 0.442 to 0.664.

Going from A40U G41C to G41C C66A, the self-cleavage falls from 0.592 to 0.285.

First: G41C C66U
Second: U38C G41U
The self-cleavage of the first is higher: 0.75 for the first, 0.705 for the second.

Going from C39U A51G to C39U A51C, the self-cleavage falls from 0.892 to 0.737.

Compared with G41A U61C, U38C U64A is higher in self-cleavage: 0.257 for the first, 0.772 for the second.

Compared with C39G G58C, A40C is lower in self-cleavage: 0.929 for the first, 0.702 for the second.

Going from A40G to A40U, the self-cleavage falls from 0.97 to 0.901.

Compared with G41A G58U, G41A G58C is lower in self-cleavage: 0.921 for the first, 0.86 for the second.

Going from G41A G58A to A40U U43G, the self-cleavage falls from 0.906 to 0.299.

Going from A40U G58A to A40U G58C, the self-cleavage rises from 0.797 to 0.881.

First: A40U G58U
Second: A40U G47A
The self-cleavage of the first is higher: 0.931 for the first, 0.885 for the second.

Going from A40U G47U to G41C U55A, the self-cleavage falls from 0.912 to 0.549.

First: G41C U55G
Second: A40G C54G
The self-cleavage of the first is lower: 0.369 for the first, 0.656 for the second.

Going from A40G C54A to U38G G47C, the self-cleavage falls from 0.701 to 0.201.

First: C39A U55A
Second: U38C U67G
The self-cleavage of the first is lower: 0.825 for the first, 0.925 for the second.

Going from G41C G56C to U38G A52U, the self-cleavage falls from 0.417 to 0.156.

Going from G41C A42G to U38G A40C, the self-cleavage falls from 0.754 to 0.17.

First: U38G A40U
Second: U38G A40G
The self-cleavage of the first is lower: 0.179 for the first, 0.257 for the second.

In the case of A40C G48A, the self-cleavage is reported as 0.882.
